For this assay, the target named is SARS-CoV-2 glycoprotein S (SARS-CoV-2) (UniProt P0DTC2). The assay is described as follows: cryo-EM structure; in situ cryo-electron tomography on cryo-FIB milled lamellae of chemically fixed infected cells; subtomogram average of 219 S trimers from six tomograms of intracellular virions; C3 symmetry applied after it was revealed without being imposed.

“SARS-CoV-2 glycoprotein S (from UniProt P0DTC2 14-1273) (natural protein)” registered a stoichiometry N of 3.

Broadly, the stoichiometry N is the number of molecules, sites or subunits per partner or assembly.
